The record followed here is article PMC7596504, “Molecular mechanism of the MORC4 ATPase activation” (Nature Communications, 2020).

Where no end group is shown, it is not given here. Me3 = trimethyl

The labels stand for the following.
B1: MORC4 ATPaseCW cassette (aa 29-486) (domain or fragment, human, UniProt Q8TE76 29-486, looked up)
chain: GIRLSTMSPRYLQSNSSSHTRPFSAIAELLDNAVDPDVSARTVFIDVEEVKNKSCLTFTDDGCGMTPHKLHRMLSFGFTDKVIKKSQCPIGVFGNGFKSGSMRLGKDALVFTKNGGTLTVGLLSQTYLECVQAQAVIVPIVPFNQQNKKMIITEDSLPSLEAILNYSIFNRENDLLAQFDAIPGKKGTRVLIWNIRRNKNGKSELDFDTDQYDILVSDFDTEEKMTGGVTSELPETEYSLRAFCGILYMKPRMKIFLRQKKVTTQMIAKSLANVEYDTYKPTFTNKQVRITFGFSCKNSNQFGIMMYHNNRLIKSFEKVGCQVKPTRGEGVGVIGVIECNFLKPAYNKQDFEYTKEYRLTINALAQKLNAYWKEKTSQDNFETSTVARPIPKVPDQTWVQCDECLKWRKLPGKIDPSMLPARWFCYYNSHPKYRRCSVPEEQELTDEDLCLSKAKKQE
notes: ATPase domain and CW domain of human MORC4, aa 29-486, cloned into pDEST15; Homodimer in the crystal with AMPPNP and Mg2+; source: E. coli Rosetta2 (DE3) pLysS or BL21 (DE3) RIL, purified (glutathione agarose, GST tag cleaved, SEC)

In series [1] the target is B1. Put plainly: other fluorescence titration; tryptophan fluorescence, 25 °C; ATPaseCW in the presence of 601 DNA (ATPaseCW:601 DNA complex), increasing histone peptide. The settings on record: both partners purified.
For series [2], the target named is T1, MORC4 CW domain (aa 417-475) (human, UniProt Q8TE76 417-475).
T1 construct: CW-type zinc finger domain of human MORC4, aa 417-475, cloned into pGEX 6p-1; Uniformly 15N-labelled in the NMR experiments; unlabelled protein was further purified by size exclusion chromatography; also called WT MORC4 CW domain; source: E. coli Rosetta2 (DE3) pLysS or BL21 (DE3) RIL, purified (glutathione agarose, GST tag cleaved)
T1 sequence (looked up): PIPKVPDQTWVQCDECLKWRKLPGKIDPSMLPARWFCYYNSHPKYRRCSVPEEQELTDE
The experiment in a line: other fluorescence titration; tryptophan fluorescence, 25 °C; 0.5-1 µM ATPaseCW or CW in 20 mM Tris pH 6.8, 100 mM NaCl, 2 mM DTT, increasing histone peptide. The settings on record: both partners purified.

Series [3] concerns the target B1. The description is as above. The settings on record: both partners purified.
For series [4], the target named is T2, MORC4 CW domain K460A/R462A/R463A (human, UniProt Q8TE76 417-475, K460A | R462A | R463A).
T2 construct: CW-type zinc finger domain of human MORC4, aa 417-475, triple mutant; Uniformly 15N-labelled in the NMR experiment; also called CWKRR; MORC4 CWKRR; source: E. coli, grown and purified as wild-type protein (glutathione agarose, GST tag cleaved)
T2 sequence (looked up): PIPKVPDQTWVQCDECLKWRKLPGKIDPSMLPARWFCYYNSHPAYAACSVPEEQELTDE
Put plainly: NMR titration; 1H,15N HSQC of 15N-labelled CWKRR titrated with H3K4me3 peptide; 20 mM Tris-HCl pH 6.8, 150 mM NaCl, 2 mM DTT. The settings on record: both partners purified.

Series [5] concerns the molecule itself. Put plainly: crystal structure; ATPaseCW (aa 29-486) with AMPPNP and Mg2+, 2.9 Å; crystallised after incubation with H3K4me3 peptide and 2 mM AMPPNP.

As usually defined, the Kd is the concentration at which binding is half-saturated.

Turning to ARTK(Me3)QTARKSTG (peptide, UniProt P68431 2-13, looked up, N-terminal tail of histone H3, aa 1-12) [histone H3K4me3 peptide (aa 1-12 of H3)], the Kd in series [1] came to 40 nM; in series [2] it was 112 nM; in series [3] it was 180 nM. For the same molecule, the binding result in series [4] is “binds”.

On to B1, for which the binding result in series [5] is listed as “binds”.

B2: unmodified histone H3 peptide (aa 1-12 of H3) (peptide, UniProt P68431 2-13, looked up)
peptide: ARTKQTARKSTG
notes: N-terminal tail of histone H3, aa 1-12; also called H3K4; unmodified H3 peptide
Consider B2, for which binding in series [2] was put at a Kd of 2700 nM.
